Assay results as given in patent US20240182536A1 (MURAL ONCOLOGY, published 2024).
Changes are numbered by the printed parent chain. Names and notes keep the numbering of the source.

Columns and labels:
[1] = target: T1, mouse IL-18 receptors on PathHunter U2OS mIL18-NF-kb reporter cells (mouse, UniProt Q61098 20-537; Q9Z2B1 20-614); assay: cell-based or functional assay
T1 sequence (looked up) 1: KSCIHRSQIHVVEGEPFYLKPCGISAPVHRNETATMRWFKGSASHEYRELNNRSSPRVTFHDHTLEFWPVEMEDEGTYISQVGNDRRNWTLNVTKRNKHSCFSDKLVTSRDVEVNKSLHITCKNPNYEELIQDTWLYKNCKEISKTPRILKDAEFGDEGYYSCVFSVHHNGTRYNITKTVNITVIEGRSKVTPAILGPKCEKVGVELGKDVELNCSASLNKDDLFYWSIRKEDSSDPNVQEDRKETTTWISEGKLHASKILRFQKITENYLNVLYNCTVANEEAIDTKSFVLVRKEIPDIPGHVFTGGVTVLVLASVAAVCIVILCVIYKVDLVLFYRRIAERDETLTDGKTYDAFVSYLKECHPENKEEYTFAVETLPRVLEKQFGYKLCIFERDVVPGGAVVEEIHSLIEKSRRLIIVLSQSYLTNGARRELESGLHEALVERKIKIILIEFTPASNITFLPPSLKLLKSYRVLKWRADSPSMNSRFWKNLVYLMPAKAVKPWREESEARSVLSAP
T1 sequence (looked up) 2: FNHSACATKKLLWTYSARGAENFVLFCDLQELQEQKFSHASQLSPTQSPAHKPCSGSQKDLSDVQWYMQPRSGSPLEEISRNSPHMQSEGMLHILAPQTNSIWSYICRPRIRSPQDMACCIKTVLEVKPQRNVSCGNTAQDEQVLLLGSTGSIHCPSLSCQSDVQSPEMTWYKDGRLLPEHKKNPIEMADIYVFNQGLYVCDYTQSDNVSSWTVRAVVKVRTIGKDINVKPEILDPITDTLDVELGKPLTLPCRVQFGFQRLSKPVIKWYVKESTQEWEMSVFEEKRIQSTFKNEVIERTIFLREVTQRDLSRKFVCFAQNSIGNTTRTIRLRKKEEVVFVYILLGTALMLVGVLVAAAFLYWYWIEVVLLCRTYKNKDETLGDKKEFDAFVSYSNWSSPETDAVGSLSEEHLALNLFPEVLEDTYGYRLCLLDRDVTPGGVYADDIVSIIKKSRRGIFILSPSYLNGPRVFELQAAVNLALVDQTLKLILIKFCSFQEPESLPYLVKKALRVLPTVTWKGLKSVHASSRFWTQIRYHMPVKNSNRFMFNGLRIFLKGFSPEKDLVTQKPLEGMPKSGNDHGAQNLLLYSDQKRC

[2] = target: T2, mouse IL-18 binding protein (mouse, UniProt Q9Z0M9 29-193); assay: cell-based or functional assay
T2 sequence (looked up): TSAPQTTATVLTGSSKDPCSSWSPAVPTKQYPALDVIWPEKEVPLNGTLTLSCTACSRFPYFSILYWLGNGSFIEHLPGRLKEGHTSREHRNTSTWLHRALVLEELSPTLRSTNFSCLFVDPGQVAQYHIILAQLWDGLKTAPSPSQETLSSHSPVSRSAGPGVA

[3] = target: T3, human IL-18 binding protein (IL-18BP) (human, UniProt O95998 31-194); assay: Octet BLI
T3 construct: also called hu IL-18BP; hIL18BP
T3 sequence (looked up): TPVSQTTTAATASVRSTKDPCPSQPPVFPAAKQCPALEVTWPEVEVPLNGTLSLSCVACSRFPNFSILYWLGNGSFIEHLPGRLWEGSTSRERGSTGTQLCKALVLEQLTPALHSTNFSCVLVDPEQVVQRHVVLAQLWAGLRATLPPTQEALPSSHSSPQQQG
Description: (§1) Octet 96red instrument was used to determine affinities of IL18 proteins to BP or receptors. 5-10 ug/ml analyte proteins were used for loading on Sartorius tips (AHC or SA). […] 120-180 s loading, 200 s association and 800 s dissociation were used for kinetics. 3-7 data points were used to calculate affinities.

[4] = target: T4, human IL-18 receptor alpha (IL-18Rα) (human, UniProt Q13478 19-329, limits assumed); assay: Octet BLI
T4 construct: also called hu IL-18Ra; IL-18R alpha
T4 sequence (looked up): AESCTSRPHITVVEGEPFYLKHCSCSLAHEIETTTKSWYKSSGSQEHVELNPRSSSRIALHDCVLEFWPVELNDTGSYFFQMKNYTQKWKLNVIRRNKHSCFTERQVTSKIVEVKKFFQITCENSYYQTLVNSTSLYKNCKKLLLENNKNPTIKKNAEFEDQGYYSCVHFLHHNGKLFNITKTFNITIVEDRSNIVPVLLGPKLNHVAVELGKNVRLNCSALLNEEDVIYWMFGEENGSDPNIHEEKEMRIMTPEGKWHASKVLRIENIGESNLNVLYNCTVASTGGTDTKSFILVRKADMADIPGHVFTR
Description: as §1

[5] = target: T5, human IL-18R alpha/beta pair (IL-18Rab) (human, UniProt Q13478 19-329; O95256 20-356); assay: Octet BLI
T5 construct: also called hu IL-18Rab
T5 sequence (looked up) 1: T4 sequence (looked up)
T5 sequence (looked up) 2: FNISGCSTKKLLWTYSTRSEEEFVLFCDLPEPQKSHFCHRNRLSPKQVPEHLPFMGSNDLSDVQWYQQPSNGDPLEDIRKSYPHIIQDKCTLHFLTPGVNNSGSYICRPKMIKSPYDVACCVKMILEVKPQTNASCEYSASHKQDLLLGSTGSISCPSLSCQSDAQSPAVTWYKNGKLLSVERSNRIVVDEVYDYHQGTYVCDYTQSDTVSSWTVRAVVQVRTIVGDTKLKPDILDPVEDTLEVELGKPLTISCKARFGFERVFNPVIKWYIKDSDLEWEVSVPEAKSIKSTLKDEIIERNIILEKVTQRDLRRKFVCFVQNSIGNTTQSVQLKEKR
Description: as §1

[6] = target: T3, human IL-18 binding protein (IL-18BP); assay: cell-based or functional assay
[7] = target: T6, IL-18 receptors on HEK-Blue IL-18 reporter cells (InvivoGen) (UniProt Q13478 19-541; O95256 20-599); assay: cell-based or functional assay
T6 sequence (looked up) 1: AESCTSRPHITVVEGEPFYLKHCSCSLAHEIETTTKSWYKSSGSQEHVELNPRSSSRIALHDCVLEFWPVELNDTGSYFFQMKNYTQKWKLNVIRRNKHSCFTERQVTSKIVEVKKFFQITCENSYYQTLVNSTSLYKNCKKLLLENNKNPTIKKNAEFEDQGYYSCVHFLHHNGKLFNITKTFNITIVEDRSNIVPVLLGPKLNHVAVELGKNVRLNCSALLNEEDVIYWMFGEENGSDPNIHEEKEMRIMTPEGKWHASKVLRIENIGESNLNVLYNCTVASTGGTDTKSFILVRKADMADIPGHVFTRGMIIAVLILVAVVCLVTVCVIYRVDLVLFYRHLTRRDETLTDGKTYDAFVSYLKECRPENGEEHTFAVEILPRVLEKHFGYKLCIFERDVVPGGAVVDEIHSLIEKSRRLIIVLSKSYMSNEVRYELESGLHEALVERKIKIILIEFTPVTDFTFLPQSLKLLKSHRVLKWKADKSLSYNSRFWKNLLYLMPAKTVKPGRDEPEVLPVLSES
T6 sequence (looked up) 2: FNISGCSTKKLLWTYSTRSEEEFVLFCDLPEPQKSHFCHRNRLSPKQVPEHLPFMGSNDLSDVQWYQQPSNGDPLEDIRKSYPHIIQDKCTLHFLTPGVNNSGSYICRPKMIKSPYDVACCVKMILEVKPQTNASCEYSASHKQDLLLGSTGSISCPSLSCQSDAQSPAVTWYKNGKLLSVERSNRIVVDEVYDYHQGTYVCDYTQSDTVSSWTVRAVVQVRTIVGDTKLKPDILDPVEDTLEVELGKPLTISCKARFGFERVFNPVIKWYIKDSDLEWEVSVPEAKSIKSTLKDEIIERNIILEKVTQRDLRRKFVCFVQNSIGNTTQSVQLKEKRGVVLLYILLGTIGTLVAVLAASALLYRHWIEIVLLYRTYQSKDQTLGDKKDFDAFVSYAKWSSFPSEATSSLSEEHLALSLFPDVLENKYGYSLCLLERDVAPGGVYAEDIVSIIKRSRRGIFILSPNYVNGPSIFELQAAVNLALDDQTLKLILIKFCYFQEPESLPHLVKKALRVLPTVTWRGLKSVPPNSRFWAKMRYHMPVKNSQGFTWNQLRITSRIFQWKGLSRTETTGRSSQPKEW

[8] = target: T3, human IL-18 binding protein (IL-18BP); assay: cell-based or functional assay; remark: listed apart in the source
[9] = target: T6, IL-18 receptors on HEK-Blue IL-18 …; assay: cell-based or functional assay; remark: listed apart in the source
[10] = target: T7, interleukin 18 binding protein (IL-18BP) (UniProt O95998 31-194); assay: cell-based or functional assay
T7 sequence (looked up): T3 sequence (looked up)

[11] = target: T8, IL-18 receptors on HEK-Blue IL-18 reporter cells (UniProt Q13478 19-541; O95256 20-599, limits assumed); assay: cell-based or functional assay
T8 sequence (looked up) 1: T6 sequence (looked up) 1
T8 sequence (looked up) 2: T6 sequence (looked up) 2

[12] = target: T9, interleukin 18 binding protein (IL-18BP) (UniProt O95998 31-194); assay: cell-based or functional assay; remark: listed apart in the source
T9 sequence (looked up): T3 sequence (looked up)

B1: Comparator 5 (ligand)
chain: HFGRLHCTTAVIRNINDQVLFVDKRQPVFEDMTDIDQSASEPQTRLIIYAYGDSRARGKAVTLSVKDSKMSTLSCKNKIISFEEMDPPENIDDIQSDLIFFQKRVPGHNKMEFESSLYEGHFLACQKEDDAFKLILKKKDENGDKSVMFTLTNLHQS
mouse IL-18 reporter assay EC50, without mouse IL-18BP [1]: 0.00149 nM | mouse IL-18 reporter assay EC50, +Mouse IL-18BP 50 nM [2]: 0.00091 nM

B2: IL-18 variant G3T, E6K, K53A (ligand)
chain: YFTKLKSKLSVIRNLNDQVLFIDQGNRPLFEDMTDSDMRDNAPRTIFIISMYADSQPRGMAVTISVKSEKISTLSSENKIISFKEMNPPDNIKDTKSDIIFFQRSVPGHDNKMQFESSSYEGYFLASEKERDLFKLILKKEDELGDRSIMFTVQNED
notes: also called G3T, K53A, E6K
Kd [3]: 6 nM | Kd [4]: 10 nM | Kd [5]: 0.32 nM | Fold Change (BP/NO BP), 50 nM BP [6]: 2.79 fold | Fold Change (BP/NO BP), 300 nM BP [6]: 35.2 fold | HEK-Blue EC50 pM, +50 nM BP [6]: 0.14 pM | HEK-blue EC50 (pM) + 300 nM BP [6]: 1.49 pM | HEK-Blue EC50 pM, NO BP (50 nM BP run) [7]: 0.05 pM | HEK-Blue EC50 pM, NO BP (300 nM BP run) [7]: 0.04 pM | HEK-Blue Activity Assay Ec50 (pM), +300 nM hu IL-18BP [8]: 1.49 pM | HEK-Blue Activity Assay Ec50 (pM), -hu IL-18BP [9]: 0.04 pM

B3: IL-18 variant K53S, S55Y (ligand)
chain: B2 chain with T3G, K6E, A53S, S55Y
HEK-blue EC50 (pM) + 300 nM BP [10]: 136 pM | Ratio [10]: 1.9 | HEK-blue EC50 (pM) - BP [11]: 70 pM

B4: IL-18 variant G3E, E6A, K53Q, D54W, S55V, T63M, N91M, R104N (ligand)
chain: B2 chain with T3E, K6A, A53Q, D54W, S55V, T63M, N91M, R104N
Ratio (-BP/+BP), DF-1000005 [12]: 0.97 | Ratio (-BP/+BP), DF-5000006 [12]: 1.03 | Ratio (-BP/+BP), DF-25000007 [12]: 0.99

B5: IL-18 variant K53H, S55V (ligand)
chain: B2 chain with T3G, K6E, A53H, S55V
HEK-blue EC50 (pM) + 300 nM BP [10]: > 200 pM | Ratio [10]: 10.1 | HEK-blue EC50 (pM) - BP [11]: 45.5 pM

B6: IL-18 variant K53T, S55P (ligand)
chain: B2 chain with T3G, K6E, A53T, S55P
HEK-blue EC50 (pM) + 300 nM BP [10]: 133 pM | Ratio [10]: 1.3 | HEK-blue EC50 (pM) - BP [11]: 103 pM

B7: IL-18 variant K53T, S55A (ligand)
chain: B2 chain with T3G, K6E, A53T, S55A
HEK-blue EC50 (pM) + 300 nM BP [10]: 140 pM | Ratio [10]: 2.1 | HEK-blue EC50 (pM) - BP [11]: 67.4 pM

B8: IL-18 variant K53S, S55K (ligand)
chain: B2 chain with T3G, K6E, A53S, S55K
HEK-blue EC50 (pM) + 300 nM BP [10]: 18.1 pM | Ratio [10]: 0.8 | HEK-blue EC50 (pM) - BP [11]: 21.8 pM

B9: IL-18 variant G3N, E6Y, K53Q, D54W, S55R, N91T, R104P (ligand)
chain: B2 chain with T3N, K6Y, A53Q, D54W, S55R, N91T, R104P
Ratio (-BP/+BP), DF-1000005 [12]: 1.02 | Ratio (-BP/+BP), DF-5000006 [12]: 0.93 | Ratio (-BP/+BP), DF-25000007 [12]: 1.03

B10: IL-18 variant K53S, S55G (ligand)
chain: B2 chain with T3G, K6E, A53S, S55G
HEK-blue EC50 (pM) + 300 nM BP [10]: 103 pM | Ratio [10]: 3.1 | HEK-blue EC50 (pM) - BP [11]: 33.4 pM

B11: IL-18 variant G3V, E6K, K53A (ligand)
chain: B2 chain with T3V
notes: also called G3V, K53A, E6K
Kd [3]: 19 nM | Kd [4]: 52 nM | Kd [5]: 0.27 nM | Fold Change (BP/NO BP), 50 nM BP [6]: 8.67 fold | Fold Change (BP/NO BP), 300 nM BP [6]: 74.8 fold | HEK-Blue EC50 pM, +50 nM BP [6]: 0.33 pM | HEK-blue EC50 (pM) + 300 nM BP [6]: 1.71 pM | HEK-Blue EC50 pM, NO BP (50 nM BP run) [7]: 0.04 pM | HEK-Blue EC50 pM, NO BP (300 nM BP run) [7]: 0.02 pM | HEK-Blue Activity Assay Ec50 (pM), +300 nM hu IL-18BP [8]: 1.71 pM | HEK-Blue Activity Assay Ec50 (pM), -hu IL-18BP [9]: 0.02 pM
